# Literature values, collected in patent US20100267610A1, “Polypeptide comprising a knottin protein moiety” (priority 2007, published 2010).
# Where no end group is shown, it is not given here.
# Biological target: T1, PTH-1 receptor (P1R) (Homo sapiens, UniProt Q03431)
# T1 sequence (Q03431 27-593): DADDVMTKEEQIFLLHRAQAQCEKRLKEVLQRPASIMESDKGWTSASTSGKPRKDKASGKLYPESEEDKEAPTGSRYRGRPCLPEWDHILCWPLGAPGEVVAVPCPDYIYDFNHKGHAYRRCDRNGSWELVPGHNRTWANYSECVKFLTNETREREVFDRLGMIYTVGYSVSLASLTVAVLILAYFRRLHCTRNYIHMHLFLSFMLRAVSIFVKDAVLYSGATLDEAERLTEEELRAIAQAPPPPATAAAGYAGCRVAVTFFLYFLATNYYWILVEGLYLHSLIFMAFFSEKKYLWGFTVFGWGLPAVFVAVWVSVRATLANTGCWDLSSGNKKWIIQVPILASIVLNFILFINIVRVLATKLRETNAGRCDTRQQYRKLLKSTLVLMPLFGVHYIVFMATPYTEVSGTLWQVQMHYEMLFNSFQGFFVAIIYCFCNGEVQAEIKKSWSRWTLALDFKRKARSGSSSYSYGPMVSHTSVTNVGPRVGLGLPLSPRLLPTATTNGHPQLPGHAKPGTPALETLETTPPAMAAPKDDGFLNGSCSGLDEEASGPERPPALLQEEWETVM
# Conditions: Shimizu et al. 2000
substance,measurement,value
"PTH (1-14): shorter native analog of PTH, residues 1-14, from the literature (SVSEIQLMHNLGKH-NH2; UniProt P01270 32-45, looked up, fragment)",activation of cAMP formation in cells,able to activate cAMP formation at high micromolar concentrations
